This data set has as its system Saccharomyces cerevisiae. In words: protein stability index of tFT-peptide fusion (C-terminal peptide) (PSI (0-1 scale)); higher = more stable (slower turnover). The settings on record: temperature: 30 C. As to the method: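 MPS profiling in S. cerevisiae of the yeast C-terminome library: the last 12 aa of each annotated ORF are fused to the C-terminus of a sfGFP-mCherry timer, after a GGGS linker. Cells are FACS-sorted into 8 mCherry/sfGFP bins and deep-sequenced. PSI runs from 0 (unstable) to 1 (stable); wild type and das1Δ backgrounds, two technical replicates each.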

The mark [1] stands for this setting: genetic background: das1 deletion.

± gives the standard deviation of the averaged measurements.

Consider WHKSQLEDMNGY [YHL012W C-terminal 12 aa], for which the protein stability index under setting [1] worked out at 0.683 ± 0.005 and the protein stability index (genetic background: wild type) turned out to be 0.6568 ± 0.0052.
For the sequence WLPELALLCALD [LAS21 C-terminal 12 aa], the protein stability index worked out at 0.614 ± 0.0098 under setting [1] and 0.633 ± 0.017 (genetic background: wild type).
For WRKFGINSYSYS [DIA2 C-terminal 12 aa] the same measures were 0.734 ± 0.016 and 0.759 ± 0.075.
For WRSIGSGPIMEF [BUG1 C-terminal 12 aa] the same measures were 0.706 ± 0.024 and 0.719 ± 0.031.
On the same counts, the results for WSDKLLQIYARC [SAE2 C-terminal 12 aa] are 0.5447 ± 0.0049 and 0.516 ± 0.045.
For WVAHSKTKLATK [CAB2 C-terminal 12 aa], the protein stability index is 0.677 ± 0.014 under setting [1] and 0.70267 ± 0.00017 (genetic background: wild type).
Take YANLLYKFWNDQ [PCL7 C-terminal 12 aa]: the protein stability index worked out at 0.735 ± 0.011 under setting [1] and 0.672 ± 0.021 (genetic background: wild type).
On the same counts, the results for YASRGTGELWSP [NMD4 C-terminal 12 aa] are 0.7031 ± 0.004 and 0.714 ± 0.0047.
As to YAVFTVLFSIIF [SPS2 C-terminal 12 aa], the protein stability index runs as follows: under setting [1], 0.297 ± 0.013; (genetic background: wild type) 0.295 ± 0.0078.
On the same counts, the results for YCFYINCIMNRR [RRT15 C-terminal 12 aa] are 0.658 ± 0.031 and 0.551 ± 0.00072.
In the case of YEIEPDFDRLAV [SVP26 C-terminal 12 aa], the protein stability index was determined as 0.691 ± 0.022 under setting [1] and 0.681 ± 0.021 (genetic background: wild type).
On the same counts, the results for YERERKLRGGKK [NOP14 C-terminal 12 aa] are 0.702 ± 0.027 and 0.692 ± 0.072.
For YEYHTEEDVMYA [YGR130C C-terminal 12 aa] the same measures were 0.703 ± 0.013 and 0.684 ± 0.044.
With YFNLFTDLSGSK [NEL1 C-terminal 12 aa], the protein stability index by setting is: under setting [1], 0.73 ± 0.012; (genetic background: wild type) 0.72 ± 0.043.
As to YGLLKFHSVFES [YMR209C C-terminal 12 aa], the protein stability index reads like this: under setting [1], 0.707 ± 0.0069; (genetic background: wild type) 0.668 ± 0.054.
For YGNWSKTVADLN [BAT1 C-terminal 12 aa] the same measures were 0.692 ± 0.022 and 0.687 ± 0.022.
For YGRGETPKHAIE [DPH1 C-terminal 12 aa] the same measures were 0.692 ± 0.0084 and 0.713 ± 0.062.
For the sequence YKTEYPEWALRR [PUS9 C-terminal 12 aa], the protein stability index is, setting by setting: under setting [1], 0.723 ± 0.01; (genetic background: wild type) 0.717 ± 0.053.
For YLIKNPGYPIVF [OST6 C-terminal 12 aa], the protein stability index runs as follows: under setting [1], 0.621 ± 0.0095; (genetic background: wild type) 0.6361 ± 0.0047.
As to YLISEKIIRKHL [MET14 C-terminal 12 aa], the protein stability index is 0.685 ± 0.017 under setting [1] and 0.602 ± 0.026 (genetic background: wild type).
Consider YLPRSKWFGILV [ALG14 C-terminal 12 aa], for which the protein stability index under setting [1] was found to be 0.359 ± 0.02 and the protein stability index (genetic background: wild type) amounted to 0.165 ± 0.0058.
For YNPPDYEPEAKK [PHM7 C-terminal 12 aa] the same measures were 0.6998 ± 0.0052 and 0.639 ± 0.008.
As for YPKFIKGHEEYF [BSC6 C-terminal 12 aa], the protein stability index stood at 0.702 ± 0.035 under setting [1] and 0.715 ± 0.0089 (genetic background: wild type).
As for YRDDPNQKNYKD [MSS4 C-terminal 12 aa], the protein stability index was 0.6905 ± 0.0037 under setting [1] and 0.749 ± 0.081 (genetic background: wild type).
For YSINPDEIELDI [SYF1 C-terminal 12 aa] the same measures were 0.707 ± 0.025 and 0.698 ± 0.029.
For YSLLIHLSKKKS [YNR005C C-terminal 12 aa] the same measures were 0.668 ± 0.025 and 0.6119 ± 0.0036.
On the same counts, the results for YSSDSSTLHSKV [FIG1 C-terminal 12 aa] are 0.7 ± 0.021 and 0.6859 ± 0.0017.
In the case of YSSRRWRLDTHD [RTC4 C-terminal 12 aa], the protein stability index turned out to be 0.763 ± 0.034 under setting [1] and 0.752 ± 0.058 (genetic background: wild type).
As to YSWMQPESGWNP [YER188W C-terminal 12 aa], the protein stability index by setting is: under setting [1], 0.738 ± 0.011; (genetic background: wild type) 0.722 ± 0.032.
On the same counts, the results for YSYSSPKYTFPC [YKL147C C-terminal 12 aa] are 0.6967 ± 0.0022 and 0.669 ± 0.063.
As for YTTVLSSQSSKL [PEX8 C-terminal 12 aa], the protein stability index reads like this: under setting [1], 0.783 ± 0.013; (genetic background: wild type) 0.855 ± 0.091.
In the case of YVIHLDQIDRDL [YLR269C C-terminal 12 aa], the protein stability index is 0.714 ± 0.0093 under setting [1] and 0.699 ± 0.028 (genetic background: wild type).
Take YVTYSGENTFGR [ATG8 C-terminal 12 aa]: the protein stability index is 0.703 ± 0.025 under setting [1] and 0.691 ± 0.021 (genetic background: wild type).
As to YVVKGWCDSRFL [GIS3 C-terminal 12 aa], the protein stability index came out at 0.72 ± 0.01 under setting [1] and 0.701 ± 0.016 (genetic background: wild type).
For YYYKNSYWPSHI [VPS36 C-terminal 12 aa] the same measures were 0.6935 ± 0.0058 and 0.701 ± 0.027.

(Values after the supplement of paper PMC10724198.)
